Data on 3 molecules can be found in paper PMC7705965 (Journal of Medicinal Chemistry, 2020).

As usually defined, the Ki is the equilibrium dissociation constant of an inhibitor or competing ligand from its target. Read a high Ki as lower affinity. One may read the IC50 as the concentration needed to halve the response being measured. Lower therefore signals greater potency in that assay. Broadly, the Kd is the concentration at which binding is half-saturated.

Primed or numbered codes have the meaning given here. Where no end group is shown, it is not given here. [ ]: non-standard residue; d: D form. TAMRA = 5(6)-carboxytetramethylrhodamine; PEG6′ = [PEG]6, polyethylene glycol

Experiment [1] concerns the target T1, α-cobratoxin (Naja kaouthia, UniProt P01391 1-71). The experiment is described as follows: fluorescence polarisation. The conditions noted are these: both partners purified.
Experiment [2] addresses T1, α-cobratoxin. The experiment is described as follows: fluorescence polarisation. The conditions noted are these: both partners purified. The source holds these as a separate data set.

T1 sequence (P01391 whole entry): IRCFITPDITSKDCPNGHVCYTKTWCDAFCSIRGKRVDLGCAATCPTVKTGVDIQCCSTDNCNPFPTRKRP

Consider [PEG6′]YMWDGWYM-NH2 [peptide 12 ([PEG]6-YMWDGWYM-NH2)], for which the Ki with α-cobratoxin [1] turned out to be 26 µM.
In the experiment with α-cobratoxin [1], Ac-HAKTYMWDGWYMPTSH-NH2 [peptide 1 (Ac-HAKTYMWDGWYMPTSH-NH2)] had a Ki of 2 µM. In the experiment with α-cobratoxin [2], this molecule yielded a half-inhibitory concentration (IC50) of 29 µM.
Consider {TAMRA}-HAKTYMWDGWYMPTSH-NH2 [peptide 9 (TAMRA-HAKTYMWDGWYMPTSH-NH2)], for which the Kd with α-cobratoxin [1] was 52 µM.
